Measurements from patent publication US20180149657A1 (IMMUNOMEDICS, published 2018).

Target: T1, human Trop-2 (human, UniProt P09758 27-323)
T1 construct: whole, on cells; also called EGP-1; epithelial glycoprotein-1
T1 sequence (looked up): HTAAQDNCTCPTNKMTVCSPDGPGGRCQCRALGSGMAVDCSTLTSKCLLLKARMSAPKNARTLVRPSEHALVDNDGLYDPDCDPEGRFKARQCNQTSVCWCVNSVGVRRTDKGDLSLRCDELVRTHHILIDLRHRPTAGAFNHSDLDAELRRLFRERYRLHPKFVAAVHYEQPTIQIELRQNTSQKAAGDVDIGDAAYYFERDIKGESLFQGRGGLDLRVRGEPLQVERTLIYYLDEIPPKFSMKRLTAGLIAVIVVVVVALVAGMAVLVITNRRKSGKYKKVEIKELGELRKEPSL
Assay: cell binding assay on NCI-N87 cells, anti-mouse-HRP secondary, luminescence

Kd: 570 pM
B1: murine RS7 (antibody, V domains shown)
VH: VKLQESGPELKKPGETVKISCKASGYTFTNYGMNWVKQAPGKGLKWMGWINTYTGEPTYTDDFKGRFAFSLETSATTAYLQINNLKSEDMATYFCARGGFGSSYWYFDVWGQGTTVTVSS
VL: DIQLTQSHKFMSTSVGDRVSITCKASQDVSIAVAWYQQKPGQSPKLLIYSASYRYTGVPDRFTGSGSGTDFTFTISSVQAEDLAVYYCQQHYITPLTFGAGTKLELK
